How the values were obtained:
[1] = target: HBV purified from blood of chronic hepatitis B patients (hHBV virions carrying hHBsAg) (hepatitis B virus from CHB patients); test: BLI, Siglec-3.Fc immobilized on the sensor, hHBV in solution
[2] = target: HBV purified from blood of chronic hepatitis B patients (hHBV virions carrying hHBsAg) (hepatitis B virus from CHB patients); test: BLI, Siglec-3.Fc immobilized on the sensor, untreated hHBV in solution
[3] = target: HBV purified from blood of chronic hepatitis B patients (hHBV virions carrying hHBsAg) (hepatitis B virus from CHB patients); test: calculated from three BLI results by the multivalency equation of paragraph 89
[4] = target: hHBV treated with sialidase S (hepatitis B virus from CHB patients); test: BLI, Siglec-3.Fc immobilized on the sensor, sialidase S-treated hHBV in solution

## recombinant human Siglec-3 ECD.Fc fusion protein (from UniProt P20138 18-259)
[1]
  Kd: 0.115 nM
  koff: 0.000358 s⁻¹
  kon: 3.11e+06 M⁻¹ s⁻¹
[2]
  Kd: 0.591 nM
  koff: 0.000697 s⁻¹
  kon: 1.18e+06 M⁻¹ s⁻¹
[3]
  valence (N): 2
[4]
  Kd: 0.384 nM
  koff: 0.000273 s⁻¹
  kon: 711000 M⁻¹ s⁻¹
